Measurements from patent US20230212587A1, “Mutant Hydroxyphenylpyruvate Dioxygenase Polypeptide, Encoding Gene Thereof and Use Therefor” (Beijing Dabeinong Biotechnology Co., Ltd., priority 2019, published 2023).

Tested on: Arabidopsis thaliana T1 plants
Experiment: Topramezone tolerance of transgenic Arabidopsis thaliana T1 plants (pesticide damage grade by bleached leaf area, score, resistance evaluation)
Format: in vivo
Conditions: HPPD F372G mutants, Table 6
Procedure, shortened: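 Eighteen days after sowing, wild-type and HPPD-transgenic T1 Arabidopsis receive a topramezone spray at 1×, 2× or 4× field rate (25–100 g ai/ha) or water. Seven days later each plant is graded by its proportion of bleached leaf area.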

| Molecule | Resistance evaluation (topramezone 25 g ai/ha (1x)) | Resistance evaluation (topramezone 100 g ai/ha (4x)) |
| --- | --- | --- |
| AtHPPDm-F372G: Arabidopsis thaliana HPPD mutant F372G, SEQ ID NO: 297 (protein, AtHPPDm-F372G Amino Acid Sequence) MGHQNAAVSENQNHDDGAASSPGFKLVGFSKFVRKNPKSDKFKVKRFHHIEFWCGDATNVARRFSWGLGMRFSAKSDLSTGNMVHASYLLTSGDLRFLFTAPYSPSLSAGEIKPTTTASIPSFDHGSCRSFFSSHGLGVRAVAIEVEDAESAFSISVANGAIPSSPPIVLNEAVTIAEVKLYGDVVLRYVSYKAEDTEKSEFLPGFERVEDASSFPLDYGIRRLDHAVGNVPELGPALTYVAGFTGFHQFAEFTADDVGTAESGLNSAVLASNDEMVLLPINEPVHGTKRKSQIQTYLEHNEGAGLQHLALMSEDIFRTLREMRKRSSIGGFDFMPSPPPTYYQNLKKRVGDVLSDDQIKECEELGILVDRDDQGTLLQIGTKPLGDRPTIFIEIIQRVGCMMKDEEGKAYQSGGCGGFGKGNFSELFKSIEEYEKTLEAKQLVG | Poorly resistant | Non-resistant |
| HaHPPDm-F372G: Helianthus annuus HPPD mutant F372G, SEQ ID NO: 319 (protein, HaHPPDm-F372G Amino Acid Sequence) MGTEATVAAVVAGDESDHPTSAFKLVGFKNFIRTNPMSDKFTVKNFHHIEFWCSDATNTARRFSWGLGMPIIFKSDLSTGNSTHASYLLRSGHLNFLFTAPYSPSISPTTTTASIPTFSHSASRHFTATHGLAVRAIAVEVEDAETAFAVSVANGAKPSSPPVTLGHNDVVLSEVKLYGDVVLRYVSYKNNTNNNNNNDNDNYIFLPGFEAMDKTSSFQELDYGIRRLDHAVGNVPELAPAVDYVKSFTGFHEFAEFTAEDVGTSESGLNSVVLACNSEMVLIPMNEPVYGTKRKSQIQTYLEHNEGAGVQHLALASEDIFRTLREMRKRSGVGGFEFMPSPPPTYYRNLKSRAGDVLSDEQIKECEELGILVDRDDQGTLLQIGTKPVGDRPTIFIEIIQRVGCMVKDDEGKVQQKAGCGGFGKGNFSELFKSIEEYEKTLEARSTTAA | Poorly resistant | Non-resistant |
| MsHPPDm-F372G: Medicago sativa HPPD mutant F372G, SEQ ID NO: 321 (protein, MsHPPDm-F372G Amino Acid Sequence) MAIETETQTQTGFKLVGFKNFVRANPKSDRFKVKRFHHVEFWCTDATNTARRFSHGLGMPIVAKSDLSTGNQTHASYLLRSGDLNFLFSAAYSPSISLSSPSSTAAIPTFSASNCFSFSASHGLAVRAVAVEVEDAELAFTTSVNNGAIPSSPPVILENHVKLAEVRLYGDVVLRYVSYNDPNPNQNPNLLFLPGFERVSDESSNSSLDFGIRRLDHAVGNVPELSSAVKYVKDFTGFHEFAEFTAEDVGTSESGLNSVVLANNEETVLLPMNEPVYGTKRKSQIETYLEHNEGAGLQHLALKSEDIFRTLREMRKRSGVGGFEFMPSPPVTYYRNLKNRVGDVLSDEQIKECEELGILVDRDDQGTLLQIGTKPIGDRPTIFIEIIQRVGCMLKDEEGKEYQKGGCGGFGKGNFSELFKSIEEYEKTLETRRTA | Moderately resistant | Non-resistant |
| CsHPPDm-F372G: Cucumis sativus HPPD mutant F372G, SEQ ID NO: 327 (protein, CsHPPDm-F372G Amino Acid Sequence) MGKEADFPRAPSEATDGGATASQSEFELQGFDNFIRTNPKSDRFKVKRFHHIEFWCTDATNVARRFSWGLGMQIVAKSDLSTGNMTHASYLLRSGHLCFLFTAPYSPSIAAAQNLTPASTASIPSFDHSVCRSFSGTHGFGARAIALEVEDAEIAFRTSVAHGAKPSCPPIVLENRAVLSEVHLYGDVVLRYISYKNPVSGDNGENKPDEWFLPKFEAMEETASFPLDFGIRRLDHAVGNVPELGPAVSYLKGFTGFHEFAEFTAEDVGTSESGLNSMVLANNEEMVLLPINEPVFGTKRKSQIQTYLEHNEGAGVQHLALMSEDIFRTLREMRKRSSVGGFEFMPSPPPTYYKNLKSRAGDVLTDEQIKECEELGILVDKDDQGTLLQIGTKPVGDRPTIFIEIIQRLGCMMKDEEGKAFQKGGCGGFGKGNFSELFKSIEEYEKTLEAKRVSE | Poorly resistant | Non-resistant |
| StHPPDm-F372G: Solanum tuberosum HPPD mutant F372G, SEQ ID NO: 329 (protein, StHPPDm-F372G Amino Acid Sequence) MGKQAATATATATATADDQQLPADIEDKYKLVGFNNFVRTNPRSDLFNVKRFHHIEFWCGDATNTARRFSWGLGLPIAAKSDLSTGNSVHASYLLRSSSSQLQFLFTAPYSPAISTPSSSSIPTFSVSSHRSFTETHGLGVRAIALEVENSRLAFSTCVSHGAKPVSEPVILNDEVVISEVHLYGDVVLRFVSFLKDSNRFVFLPGFELVEGAQLDYGIRRLDHAVGNVPQLGPVVEYIKSFTGFHEFAEFTAEDVGTAESGLNSVVLANNDETVLFPLNEPVYGTKRKSQIQTYLEHNEGAGVQHLALVTEDIFRTLREMRKRSGIGGFEFMPSPPPTYYKNLKSRAGDILSDEQIKECEELGILVDRDDQGTLLQIGTKPVGDRPTIFLEIIQRIGCMLQNAEGELYQKGGCGGFGKGNFSELFKSIEEYEKTLEAKQNTQVAIA | Poorly resistant | Non-resistant |
| BnHPPDm-F372G: Brassica napus HPPD mutant F372G, SEQ ID NO: 317 (protein, BnHPPDm-F372G Amino Acid Sequence) MGHENAAVCETQQHDDAASPGFKLVGFSKFVRKNPKSDKFKVKRFHHIEFWCGDATNVSRRFSWGLGMRFSAKSDLSTGNMVHASYLLTSGDLRFLFTAPYSPSLSAGEAQPSATASIPSFDHASCRSFFSSHGLGVRAVAIEVEDAESAFSISVANGAVPSSPPNVLNGAVTIAEVKLYGDVVLRYVSYYNGTVSFLPGFESVDDTSSFPLDYGIRRLDHAVGNVPELGPALTYLAGFTGFHQFAEFTADDVGTAESGLNSAVLANNDEMVLLPINEPVHGTKRKSQIQTFLEHNEGAGLQHLALMSEDIFRTLREMRKRSGVGGFDFMPSPPPTYYKNLKKRVGDVLSEEQIEECEELGILVDRDDQGTLLQIGTKPLGDRPTIFIEIIQRVGCMKRDEEGKVYQSGGCGGFGKGNFSELFKSIEEYEKTLEAKQLVG | Poorly resistant | Non-resistant |
| GmHPPDm-F372G: Glycine max HPPD mutant F372G, SEQ ID NO: 313 (protein, GmHPPDm-F372G Amino Acid Sequence) MPMYTPSLSAPSSNHIQPSVTLPLYITTTKLNLKQQHHTTPMPIPMCNEIQAQAQAQAQPGFKLVGFKNFVRTNPKSDRFQVNRFHHIEFWCTDATNASRRFSWGLGMPIVAKSDLSTGNQIHASYLLRSGDLSFLFSAPYSPSLSAGSSAASSASIPSFDAATCLAFAAKHGFGVRAIALEVADAEAAFSASVAKGAEPASPPVLVDDRTGFAEVRLYGDVVLRYVSYKDAAPQAPHADPSRWFLPGFEAAASSSSFPELDYGIRRLDHAVGNVPELAPAVRYLKGFSGFHEFAEFTAEDVGTSESGLNSVVLANNSETVLLPLNEPVYGTKRKSQIETYLEHNEGAGVQHLALVTHDIFTTLREMRKRSFLGGFEFMPSPPPTYYANLHNRAADVLTVDQIKQCEELGILVDRDDQGTLLQIGTKPVGDRPTIFIEIIQRIGCMVEDEEGKVYQKGACGGFGKGNFSELFKSIEEYEKTLEAKRTA | Poorly resistant | Non-resistant |
| NtHPPDm-F372G: Nicotiana tabacum HPPD mutant F372G, SEQ ID NO: 325 (protein, NtHPPDm-F372G Amino Acid Sequence) MGKLETVTTTSAAAADDSSELTTNFKLVGFKNFIRTNPRSDFFSVKSFHHIEFWCGDATNTARRFSWSLGMPIAAKSDLSTGNSVHASYLLRPVSGSLQFLFTAPYSPSISTPSSAAIPSFSTSTHRSFTTTHGLGVRAVALEVENAYTAFSASVSRGAKPMFEPVTIDEQVAMAEVHLYGDVVLRFVSYLKDADNLVFLPGFEAMDETASYKELDYGIRRLDHAVGNVPELGPVVDYIKRFTGFHEFAEFTAEDVGTAESGLNSMVLANNDETVLLPLNEPVYGTKRKSQIQTYLEHNEGAGVQHLALVTEDIFKTLTEMRKRSGVGGFEFMPSPPPTYYKNLKNRAGDVLSDEQILACEELGILVDRDDQGTLLQIGTKPVGDRPTIFIEIIQRIGCMLKDGKGQVYQKGGCGGFGKGNFSELFRSIEEYEKTLEAKQANQVAAA | Poorly resistant | Non-resistant |
| BvHPPDm-F372G: Beta vulgaris HPPD mutant F372G, SEQ ID NO: 323 (protein, BvHPPDm-F372G Amino Acid Sequence) MGTLSPQPQTSPSQFKLVGYSNFIRVNPLSDLFPVKRFHHVEFWCGDATNVSRRFSWGLGMPIVAKSDLSTGNSVHASYLLRSGELHFLFTSPYSPSLSSPSSATIPTFSFSLFTSFLTSHGLAVRAVAVEVQDAEAAFHISVSNGASPVSPPIRLHDGVVLSEVHLYGDVVLRYVSTSSVVDGIFLPGFEEMLGESSFQELDFGLRRLDHAVGNVPELAPAIEYVKKFTGFHEFAEFTTEDVGTSESGLNSAVVANNDETVLFPMNEPVYGTKRKSQIQTYLEHNEGAGVQHLALMSEDIFWTLREMRKRSGLGGFEFMPSPPPTYYRNLRNRAADVLSEEQMKECEELGILVDKDDQGTLLQIGTKPIGDRPTMFIEIIQRIGCMMKDEEGKVYQKGGCGGFGKGNFSELFKSIEEYEKTLERKPIADTNAT | Moderately resistant | Non-resistant |
| CaHPPDm-F372G: Cicer arietinum HPPD mutant F372G, SEQ ID NO: 315 (protein, CaHPPDm-F372G Amino Acid Sequence) MGTIETQTGFKLVGFNNFVRTNPKSDRFKVKRFHHVEFWCPDATNTARRFSWGLGMPIVAKSDLSTGNQTHASYLLRSGDLNFLFTAAYSPSISLSAPHPTASIPSFSAPTSFAFSASHGLGVRAVAIEVDDAEFAYTTSVNHGAIPSSPPVVLDNRVKLAEVQLYGDVVLRYVSYNDPIETSNPNPNHWFLPGFEPVEETSSNQSIDFGIQRLDHAVGNVPELSSALNYVKQFTGFHEFAEFTAEDVGTSESGLNSTVLANNEETVLLPMNEPVYGTKRKSQIQTYLEHNEGAGLQHLALMSNDIFKTLREMRKRSGIGGFEFMPSPPPTYYSNLKKRVGDVLNDEQIKECEELGILVDKDDQGTLLQIGTKPVGDRPTIFIEIIQRVGCMLKDDEGKEYQKGGCGGFGKGNFSELFKSIEEYEKTLEIKRTA | Poorly resistant | Non-resistant |
